# Measured values reported in article PMC9482650, “Quantitative fragmentomics allow affinity mapping of interactomes” (Nature Communications, 2022).
# T1: MPDZ_5, O75970
# T1 sequence (O75970 695-796, limits assumed, looked up): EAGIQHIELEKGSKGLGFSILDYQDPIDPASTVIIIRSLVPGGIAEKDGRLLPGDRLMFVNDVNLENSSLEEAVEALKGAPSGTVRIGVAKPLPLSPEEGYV
# T2: DLG3_3, Q92796
# T2 sequence (Q92796 374-475, limits assumed, looked up): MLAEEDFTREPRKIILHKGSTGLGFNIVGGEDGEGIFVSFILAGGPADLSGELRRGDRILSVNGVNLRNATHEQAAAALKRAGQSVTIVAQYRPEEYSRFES
# T3: DLG3_2, Q92796
# T3 sequence (Q92796 221-321, limits assumed, looked up): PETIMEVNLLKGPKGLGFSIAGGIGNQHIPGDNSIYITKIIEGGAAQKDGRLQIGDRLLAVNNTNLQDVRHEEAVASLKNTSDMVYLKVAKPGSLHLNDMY
# T4: GRIP1_3, Q9Y3R0
# T4 sequence (Q9Y3R0 247-346, limits assumed, looked up): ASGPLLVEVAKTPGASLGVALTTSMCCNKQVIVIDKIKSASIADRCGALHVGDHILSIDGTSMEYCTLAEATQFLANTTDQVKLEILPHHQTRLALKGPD
# T5: ARHGEF11, O15085
# T5 sequence (O15085 42-136, limits assumed, looked up): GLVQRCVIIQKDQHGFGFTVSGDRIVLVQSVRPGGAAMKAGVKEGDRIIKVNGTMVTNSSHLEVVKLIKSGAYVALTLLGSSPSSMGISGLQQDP
# T6: RHPN1, Q8TCX5
# T6 sequence (Q8TCX5 508-602, limits assumed, looked up): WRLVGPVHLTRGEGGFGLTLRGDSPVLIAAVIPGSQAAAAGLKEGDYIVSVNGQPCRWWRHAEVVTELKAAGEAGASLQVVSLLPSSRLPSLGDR
# T7: SYNJ2BP, P57105
# T7 sequence (P57105 8-110, limits assumed, looked up): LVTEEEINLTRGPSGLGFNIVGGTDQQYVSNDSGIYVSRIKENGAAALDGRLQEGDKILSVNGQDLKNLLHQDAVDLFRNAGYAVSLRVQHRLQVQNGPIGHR
# T8: RADIL, Q96JH8
# T8 sequence (Q96JH8 971-1071, limits assumed, looked up): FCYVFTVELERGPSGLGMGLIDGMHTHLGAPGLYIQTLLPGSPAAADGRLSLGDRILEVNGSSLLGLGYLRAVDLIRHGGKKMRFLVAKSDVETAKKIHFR
# T9: LRRC7, Q96NW7
# T9 sequence (Q96NW7 1440-1537, limits assumed, looked up): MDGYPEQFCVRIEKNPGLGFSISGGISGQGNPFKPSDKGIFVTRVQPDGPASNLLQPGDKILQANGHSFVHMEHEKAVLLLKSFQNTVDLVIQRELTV
# T10: MPP7, Q5T2T1
# T10 sequence (Q5T2T1 134-230, limits assumed, looked up): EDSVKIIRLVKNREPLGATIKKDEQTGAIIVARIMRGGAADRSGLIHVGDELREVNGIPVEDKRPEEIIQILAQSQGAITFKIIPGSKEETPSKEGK
# T11: DFNB31_1, Q9P202
# T11 sequence (Q9P202 135-233, limits assumed, looked up): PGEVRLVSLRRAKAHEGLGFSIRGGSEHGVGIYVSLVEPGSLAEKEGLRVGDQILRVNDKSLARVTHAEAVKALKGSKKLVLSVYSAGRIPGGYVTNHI
# T12: SIPA1L2, Q9P2F8
# T12 sequence (Q9P2F8 945-1036, limits assumed, looked up): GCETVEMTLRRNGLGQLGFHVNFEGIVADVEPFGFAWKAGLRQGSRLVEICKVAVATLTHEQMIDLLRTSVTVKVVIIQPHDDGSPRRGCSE
# T13: CARD11, Q9BXL7
# T13 sequence (Q9BXL7 662-765, limits assumed, looked up): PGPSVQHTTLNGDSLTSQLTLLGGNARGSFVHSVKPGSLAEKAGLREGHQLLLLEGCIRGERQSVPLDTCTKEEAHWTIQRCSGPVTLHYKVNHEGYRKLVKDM
# How the values were obtained:
# Assay in all cases: holdup assay
# Set-up in all cases: key: below the threshold = too weak to quantify, mostly under pKd 3.1 to 4
# MPDZ_5, O75970 = target: T1, MPDZ_5, O75970
# FRMPD2_3, Q68DX3 = target: FRMPD2_3, Q68DX3
# ARHGEF12, Q9NZN5-2 = target: ARHGEF12, Q9NZN5-2
# NHERF4_2, Q86UT5 = target: NHERF4_2, Q86UT5
# Inadl_1, Q8NI35 = target: Inadl_1, Q8NI35
# DLG3_3, Q92796 = target: T2, DLG3_3, Q92796
# DLG3_2, Q92796 = target: T3, DLG3_2, Q92796
# TJP1_3, Q07157 = target: TJP1_3, Q07157
# GRIP1_3, Q9Y3R0 = target: T4, GRIP1_3, Q9Y3R0
# MAGI2_2, Q86UL8 = target: MAGI2_2, Q86UL8
# ARHGEF11, O15085 = target: T5, ARHGEF11, O15085
# RHPN1, Q8TCX5 = target: T6, RHPN1, Q8TCX5
# SYNJ2BP, P57105 = target: T7, SYNJ2BP, P57105
# RADIL, Q96JH8 = target: T8, RADIL, Q96JH8
# GRIP2_5, Q9C0E4 = target: GRIP2_5, Q9C0E4
# GRIP2_6, Q9C0E4 = target: GRIP2_6, Q9C0E4
# LRRC7, Q96NW7 = target: T9, LRRC7, Q96NW7
# SNX27, Q96L92 = target: SNX27, Q96L92
# HTRA1, Q92743 = target: HTRA1, Q92743
# Inadl_6, Q8NI35 = target: Inadl_6, Q8NI35
# MPP7, Q5T2T1 = target: T10, MPP7, Q5T2T1
# DFNB31_1, Q9P202 = target: T11, DFNB31_1, Q9P202
# SIPA1L2, Q9P2F8 = target: T12, SIPA1L2, Q9P2F8
# CARD11, Q9BXL7 = target: T13, CARD11, Q9BXL7
# [1] = plain residues with an end cap or a label only (N-terminal biotin on a linker: ado-ado)
# [2] = modified: phospho on T at position -2 from the C-terminal residue
# Chain of Inadl_1, Q8NI35 (Q8NI35 113-229): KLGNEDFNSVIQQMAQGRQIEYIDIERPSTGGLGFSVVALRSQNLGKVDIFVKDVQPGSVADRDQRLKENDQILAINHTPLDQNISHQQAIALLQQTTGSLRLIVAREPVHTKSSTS
# Chain of ARHGEF12, Q9NZN5-2 (Q9NZN5 other isoform, or with tags, fused parts or gaps): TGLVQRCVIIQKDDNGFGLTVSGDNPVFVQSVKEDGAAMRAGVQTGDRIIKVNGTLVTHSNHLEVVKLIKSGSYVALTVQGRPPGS
# Chain of Inadl_6, Q8NI35 (Q8NI35 1058-1167): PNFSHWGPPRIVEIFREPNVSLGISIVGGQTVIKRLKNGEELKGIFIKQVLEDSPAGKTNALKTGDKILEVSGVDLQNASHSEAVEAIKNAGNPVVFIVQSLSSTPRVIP
# Chain of FRMPD2_3, Q68DX3 (Q68DX3 1073-1166): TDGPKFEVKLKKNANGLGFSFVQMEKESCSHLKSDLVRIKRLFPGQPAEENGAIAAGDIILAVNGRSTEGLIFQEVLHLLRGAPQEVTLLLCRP
# Chain of GRIP2_5, Q9C0E4 (Q9C0E4 544-642): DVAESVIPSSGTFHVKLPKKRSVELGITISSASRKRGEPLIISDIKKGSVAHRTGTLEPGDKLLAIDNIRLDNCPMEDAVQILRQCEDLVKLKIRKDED
# Chain of GRIP2_6, Q9C0E4 (Q9C0E4 648-740): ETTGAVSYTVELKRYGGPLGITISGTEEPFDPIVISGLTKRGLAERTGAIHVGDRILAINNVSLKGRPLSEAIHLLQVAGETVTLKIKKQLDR
# Chain of NHERF4_2, Q86UT5 (Q86UT5 220-308): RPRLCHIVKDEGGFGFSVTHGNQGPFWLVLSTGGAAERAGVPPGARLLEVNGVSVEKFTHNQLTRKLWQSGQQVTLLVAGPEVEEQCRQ
# Chain of TJP1_3, Q07157 (Q07157 416-512): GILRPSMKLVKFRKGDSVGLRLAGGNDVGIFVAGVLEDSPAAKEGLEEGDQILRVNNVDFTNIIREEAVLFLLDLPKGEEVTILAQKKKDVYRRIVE
# Chain of HTRA1, Q92743 (Q92743 360-477): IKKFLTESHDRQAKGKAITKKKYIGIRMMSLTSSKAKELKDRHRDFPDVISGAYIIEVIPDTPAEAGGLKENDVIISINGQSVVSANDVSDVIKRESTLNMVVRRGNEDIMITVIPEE
# Chain of MAGI2_2, Q86UL8 (Q86UL8 410-522): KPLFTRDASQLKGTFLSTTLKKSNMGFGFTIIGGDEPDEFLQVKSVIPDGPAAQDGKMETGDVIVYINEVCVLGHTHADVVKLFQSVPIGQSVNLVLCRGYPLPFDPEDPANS
binder,measurement,setting,value
"PYSESDDDWC [CACNA1A, O00555]",pKd,"MPDZ_5, O75970; [1]",below the threshold
same,pKd,"FRMPD2_3, Q68DX3; [1]",below the threshold
same,pKd,"ARHGEF12, Q9NZN5-2; [1]",below the threshold
same,pKd,"NHERF4_2, Q86UT5; [1]",below the threshold
same,pKd,"Inadl_1, Q8NI35; [1]",below the threshold
same,pKd,"DLG3_3, Q92796; [1]",below the threshold
same,pKd,"DLG3_2, Q92796; [1]",4.16
same,pKd,"TJP1_3, Q07157; [1]",below the threshold
same,pKd,"GRIP1_3, Q9Y3R0; [1]",below the threshold
same,pKd,"MAGI2_2, Q86UL8; [1]",below the threshold
same,pKd,"ARHGEF11, O15085; [1]",3.51
same,pKd,"RHPN1, Q8TCX5; [1]",below the threshold
same,pKd,"SYNJ2BP, P57105; [1]",3.6
same,pKd,"RADIL, Q96JH8; [1]",below the threshold
same,pKd,"GRIP2_5, Q9C0E4; [1]",below the threshold
same,pKd,"GRIP2_6, Q9C0E4; [1]",below the threshold
same,pKd,"LRRC7, Q96NW7; [1]",below the threshold
same,pKd,"SNX27, Q96L92; [1]",4.09
same,pKd,"HTRA1, Q92743; [1]",4.53
same,pKd,"Inadl_6, Q8NI35; [1]",below the threshold
same,pKd,"MPP7, Q5T2T1; [1]",below the threshold
same,pKd,"DFNB31_1, Q9P202; [1]",below the threshold
same,pKd,"SIPA1L2, Q9P2F8; [1]",below the threshold
same,pKd,"CARD11, Q9BXL7; [1]",below the threshold
"SSRTRRETQL [HPV16-E6_-2P, P03126]",pKd,"MPDZ_5, O75970; [2]",below the threshold
same,pKd,"FRMPD2_3, Q68DX3; [2]",below the threshold
same,pKd,"ARHGEF12, Q9NZN5-2; [2]",below the threshold
same,pKd,"NHERF4_2, Q86UT5; [2]",below the threshold
same,pKd,"Inadl_1, Q8NI35; [2]",below the threshold
same,pKd,"DLG3_3, Q92796; [2]",below the threshold
same,pKd,"DLG3_2, Q92796; [2]",below the threshold
same,pKd,"TJP1_3, Q07157; [2]",below the threshold
same,pKd,"GRIP1_3, Q9Y3R0; [2]",below the threshold
same,pKd,"MAGI2_2, Q86UL8; [2]",below the threshold
same,pKd,"ARHGEF11, O15085; [2]",below the threshold
same,pKd,"RHPN1, Q8TCX5; [2]",below the threshold
same,pKd,"SYNJ2BP, P57105; [2]",below the threshold
same,pKd,"RADIL, Q96JH8; [2]",below the threshold
same,pKd,"GRIP2_5, Q9C0E4; [2]",below the threshold
same,pKd,"GRIP2_6, Q9C0E4; [2]",below the threshold
same,pKd,"LRRC7, Q96NW7; [2]",below the threshold
same,pKd,"SNX27, Q96L92; [2]",below the threshold
same,pKd,"HTRA1, Q92743; [2]",below the threshold
same,pKd,"Inadl_6, Q8NI35; [2]",below the threshold
same,pKd,"MPP7, Q5T2T1; [2]",below the threshold
same,pKd,"DFNB31_1, Q9P202; [2]",below the threshold
same,pKd,"SIPA1L2, Q9P2F8; [2]",below the threshold
same,pKd,"CARD11, Q9BXL7; [2]",below the threshold
"EDGESWEYQI [TRPV6, Q9H1D0]",pKd,"MPDZ_5, O75970; [1]",below the threshold
same,pKd,"FRMPD2_3, Q68DX3; [1]",below the threshold
same,pKd,"ARHGEF12, Q9NZN5-2; [1]",below the threshold
same,pKd,"NHERF4_2, Q86UT5; [1]",below the threshold
same,pKd,"Inadl_1, Q8NI35; [1]",4.41
same,pKd,"DLG3_3, Q92796; [1]",below the threshold
same,pKd,"DLG3_2, Q92796; [1]",4.02
same,pKd,"TJP1_3, Q07157; [1]",below the threshold
same,pKd,"GRIP1_3, Q9Y3R0; [1]",below the threshold
same,pKd,"MAGI2_2, Q86UL8; [1]",below the threshold
same,pKd,"ARHGEF11, O15085; [1]",3.63
same,pKd,"RHPN1, Q8TCX5; [1]",below the threshold
same,pKd,"SYNJ2BP, P57105; [1]",below the threshold
same,pKd,"RADIL, Q96JH8; [1]",3.69
same,pKd,"GRIP2_5, Q9C0E4; [1]",below the threshold
same,pKd,"GRIP2_6, Q9C0E4; [1]",3.8
same,pKd,"LRRC7, Q96NW7; [1]",below the threshold
same,pKd,"SNX27, Q96L92; [1]",below the threshold
same,pKd,"HTRA1, Q92743; [1]",4.45
same,pKd,"Inadl_6, Q8NI35; [1]",below the threshold
same,pKd,"MPP7, Q5T2T1; [1]",5.06
same,pKd,"DFNB31_1, Q9P202; [1]",below the threshold
same,pKd,"SIPA1L2, Q9P2F8; [1]",below the threshold
same,pKd,"CARD11, Q9BXL7; [1]",below the threshold
